Tested on: K4 kissing-loop RNA reporter
Assay: apparent KD of K4 kissing-loop reporter; higher = weaker reporter binding
Details: Eterna round: R107
Procedure: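 RNA-MaP round R107: designed RNA switches with theophylline, tryptophan, arginine or FMN aptamers are transcribed on-chip within common flanks. They are titrated with a labelled K4 kissing-loop RNA reporter in RNA-MaP buffer (100 mM Tris pH 7.5, 80 mM KCl, 4 mM MgCl2), without ligand or with the indicated ligand. Median apparent KD per design.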

[1] = input ligand: theophylline 20 uM
[2] = input ligand: tryptophan 2.4 mM
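Note: bound reporter read as fluorescence of individual clusters on recovered sequencing chips by microscopy, with normalized cluster intensities fitted with a binding model.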

Sequence | apparent KD of K4 kissing-loop reporter (input ligand: FMN 200 uM) [nM] | apparent KD of K4 kissing-loop reporter (input ligand: arginine 13.2 mM) [nM] | apparent KD of K4 kissing-loop reporter (input ligand: none) [nM] | apparent KD of K4 kissing-loop reporter [1] [nM] | apparent KD of K4 kissing-loop reporter [2] [nM]
UGGAUAUAGUGAUGUUAUAUAGAGAUAGAUACCAGUUAAGAGAAUAGCCCUUGGCAGCUGAAAGAAGUAUCAUUAGAGAAGAAUG [ExTheophyl.Ab] | 212 | 147 | 207 | 170 | 137
AAUUUAUUAACUGAUACCAGACUUUAGCGUGUUUAUAAGUCAAGUGAUGUUUGACUAUUAGUCCCUUGGCAGCAGUAUUUAUUAA [JR_SSTheophyB_Sub022] | 149 | 131 | 134 | 114 | 120
AAGCGUAAAAUGGCGGACAUACUGCUCCCACGAGGACCGGUACGGCCGCCACUCGAAUGCGGCAGUGAUGUUGCCGCCUUCGCGU [Zauslereed] | 74 | 68.3 | 62.8 | 69.9 | 62.5
GCGCGUCAUGUCAGCGGUGACUUUGUCGAUACCAGCGCCGCAAGGCGCCCUUGGCAGCGACGCGCUGGAGUGAUGUUCCAGCGUG [#2 Exclusion - Theophylline A Attempt #12 (HarryS)] | 135 | 126 | 134 | 154 | 126
AAAUAGAUCAGUCAUCCAGUGAUGUUGGAAGGAGCGUGCGAAAGCACAGGUAGGUCGCCAAAAUAAAAGUGGCUGAUCAAAAUAA | 629 | 374 | 302 | 594 | 302
UGUCAUUGGUCGGCCGCCACUCCAUAAAGAGUGAUGUUCUGAAAGACGGAUCGAAAGAUCUGUCGGAGGACCGGGACCGAUGACU [FiskerMod 3 - Jieux - Same State - Tryptophan B] | 1310 | 665 | 1540 | 896 | 237
AACUGUCAAGGACAACAUUACUGAGGUGAUACCAGCAUCGAAAGAUGCCCUUGGCAGCGCCAACUUGCAGUGAUGUUGCAAGUAA [BrourdMod 1 - Jieux - Exclusion - Theophylline A] | 169 | 141 | 157 | 159 | 164
AAAAUAAUCCAGUGAUGUUGGUAUCCAGAUACCAGCCAGGAAACUGGCCCUUGGCAGCUGGCGACGUACAAAAUAAGUACGUCGU [#OpenEnded 11 #StaticStem #K4Early] | 405 | 184 | 470 | 664 | 374
AGAUGGAAUAGAAGGAGCGGCGCCAGUGAUGUUGGAUGCCGCGGGUGAAUCAGAUCAUAGUGCCAGGUAGGUCGCUAUUUCAGCG [Anedin] | 113 | 101 | 106 | 116 | 112
GCGCGGCUCAGUGAUGUUGAGCCUCGGAAACGAGGACCGGUACGGCCGCCACUCGUCCGCGCAGCUGAGGCAAAAGCCUCGGCUA [Omei KL Tryp A SS B v2] | 468 | 310 | 484 | 480 | 273
UGGAUAUAGUGAUGUUAUAUAGAGAUGGAUACCAGCGAAGAGAAUUGCCCUUGGCAGCCGAAAGCAGUAUCAUUAGAGAAGAAUG [#19 K4 Theophylline A Exclusion] | 291 | 252 | 271 | 251 | 255
